# According to the nanobody polyreactivity screen of Harvey et al. (2022):
# Test: yeast display, Sf9 membrane polyspecificity reagent, FACS + sequencing; frameworks hold sequencing errors
# Procedure, shortened: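 Galactose induction of a Saccharomyces cerevisiae BJ5465 synthetic nanobody display library ran 36–48 hours. The cells were then stained for 1 hour at 4 °C with 10% biotinylated, detergent-solubilized Sf9 membrane reagent, pulled down on streptavidin microbeads and FACS-sorted into low and high (top ~1%) gates on expression and reagent-binding fluorescence. Labels for polyreactivity follow the gate of origin.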
row,Sequence,polyreactivity (PSR sort gate)
1,QVQLVESGGGLVQAGGSLRLSCASSGRTFRYYAKGWYRQAPGKERELVATISSGGSTNYADSVKGRFTISRDNAKNTVYFQMNSLKPEDTAVYYCAAAKYVTYLSIYYYWGQGTQVTVSS,high polyreactivity
2,QVQLVESGGGLVQAGGSLRLSCAASGITFLYYTRGWYRPAPGKERELVASISRSGNTYYADSVKGRFTISRDNAKNTVYLQMNSLKPEDTAVYYCAAKRKSYYSYNFDYWGQGTQVTVSS,high polyreactivity
3,QVQLVESGGGLVQAGGSLRLSCAASGRTFPLYAMGWYRQAPGKERELVAAISWSGGSTYYADSVKGRFTISRDHAKNTVYLQMNSLKPEDTAVYYCNTLGRLTGRYGWSSKYYYWGQGTQVTVSS,high polyreactivity
4,QVQLVESGGGLVQAGGSLRLSCAASGFIFTDYAMGWYRQAPGKERELVAAISSGGRTYYAVSVKGRFTISRDNAKNTVYIQMNSLKPEDTAVYYCARGGRAEGWGQGTQVTVSS,high polyreactivity
5,QVQLVESGAGLVHAGGSLRLSCAASGRIFNYYAMGWYRQAPGKESELVAGINWSGTRTYYADSVKGRFTISRDNAKITVYLQMNSLKPEDTAVYYCNAGRTWRAFTGDEYWVQGTQVTVSS,high polyreactivity
6,QVQLEESGGGLVQAGGSLRLSCAASGFTFNYYTMGWYTQAPGKERELVATISTRGGSTYYADSVKGRFTISRDNAKNSVYLQMNSLKPEDTAVYYCNVGQKSVSSAYDYWGQGTEVTVSS,high polyreactivity
7,QVQLVESGGGLVQAGGSLRLSCAAYGITFEVNAMGWYRQAPGKERELVAAINSSVASTYYADSVKGRFTISRDNAKNTVDLQMNSLKPEDTAVYYCAAQGKGGTEYGYGYWGQGTQVTVSS,low polyreactivity
8,QVQLVESGGGLVQAGGSLRLSCAASGSTFTSNTMGWCRQAPGKERELVAGITGAGSTNYADSVKGRFTISRDNEKNTVYLQMNSLKPEDTAVYYCAASVRWPRVSQRARYGYYYWGQGTQVAVSS,high polyreactivity
9,QVQLVESGGGLVQAGGSLRLSCAASGITFTYYAMGWYRQAPGKERELVAAISYSGGSTYYADSVKGRFTISRDNAKITGYLQMNSLKREDTAVYYCATDARDGHDYWGQGTQVTVSS,high polyreactivity
10,QVQLVESGGGLVQAGGSLRLSCAASGRTFPGTAMGWYRQAPGKVRELVAAISSSGGSTHYADSVKGRFTISRDTAKNTVYYQMNSLKPEDTAVYYCNTVYAVWYKLDYWGQGTQVTVSS,high polyreactivity
11,QVQLVESGGGLVQAGGSLRLSCAASGFLFGYSAMGWYRQAPGKERELVAAISYACRSTYYADSVKGRFTISRDNAKNTVYLQMNSLKPEDTAVYYCAKYGQSNYDWGQGTQVTVSS,high polyreactivity
12,QVQLLESGGGLVQAGGTLPLSCAASGRTFKYYAMGWYRQAPGKERELVAGISSTGRTNYADSVKGRFTISRDNAKNTVYLEMNSLKPEDTAVYYCNAERKSFGKFVYWGQGTLVTVSS,high polyreactivity
13,QVQLVESGGGLVQAGGSLRLSCAASGRIFLYYAMGWYRQAPGKERELVAAIDSSGGNTNYADSVKGRFTISRDNAKNTVYLQMNSLKPEDTAVYYCAADFYVSADRWPNYDYWGHGTQVTVSS,low polyreactivity
14,QVQLVESGGGLVQAGGSLRLSCAASGRTLRTYGMGWYRQAPGKERELVARITIGGRTYYADSVKGRFTISRDNAKNTVYLQMNSLKPEDTAVYYCAARYAGGTSRILYGYWGQGTQVTVSS,high polyreactivity
15,QVQLVESGGGLVQAGGSLRLSCAASGITLYNYAMGWYRQAPGKERELVAAISLSGGRTYYADSVKGRFTISRDNAKNTVYLQMNSLKPEDTAVYYCAAETDFVWSAPQLAYKVYYWGQGTQVTVSS,low polyreactivity
16,QVQLVESGGGLVQAGGSLRLSCAASGRIFGRNTMGWYRQAPGKERELVAAITGTGTTYADSVKGRFTISRDNAKNTVYLQMNSLKPEDTAVYYCAARRSVYTWVSRYNYWGQGTQVTVSS,high polyreactivity

row,Sequence,polyreactivity (PSR sort gate)
1,QVQLVESGGGLVQAGGSLRLSCAPSGFIFYFYTMGRYRQAPGKEMELVAGITWLDGSTYYADSVKGRLTISRDNAKNTVYLQRNSLKPEDTAVYYCAVDYDLVVSPYYYWGQGTQVTVSS,low polyreactivity
2,QVQLVESGGGLVQAGGSLRLSCAASGSTFYANAMGWYRQAPGKERELVAAIDSGGTTTYADSVKGRFTISRDNAKNTVYLQMNSLKPEDTAVYYCAADQYWYFWYDYWGQGTQVTVSS,low polyreactivity
3,QVQLVESGGGLVQAGGSLRLSCAASGSIFNYNMGWYRQAPGKERELVAAVSTNYADTVKGRFTISRDNAKNTVYLQMNSLKPEDTAVYYCGVTPEKSGDEYDYGGQGTQVTVSS,low polyreactivity
4,QVQLVESGGGLVQAGGSLRLSCAASGSTFIRNAMGWYRPAPGKERELVAAISSSGGRTYYADSVKGRFTISRDNAKNTVYLQMNSLKPEDTAVYYCAARNARYVHTMEYWGQGTQVTVSS,high polyreactivity
5,QVQLVESGGGIVPAGGSLRLSCAASGLIFKTYTMGWSRQAPGKEREFVAAITTSGGSTYYADSVKGRFTISRDNAKNTVYLQMNSLKPEDTAVYSCGAVWWKSFQGSSYRMNYWGQGTQVTVSS,high polyreactivity
6,QVQLVESGGGLVQAGGSLRLSCAASGLTFRKYAMGWYRPAPGKEREWVAAITRGGSTNYADSVKGRFTISRDNAKNTVYLQMNSLKPEDTAVYYCAAQYTYRFPYPGYATTHDYWGQGTQVTVSS,high polyreactivity
7,QVQLVESGGGLVQAGGSLRLSCAASGLIFLGYAMGWYRQAPGKERELVASIRTGGSTSYADSVKGRFTISRDNAKNTVYLQMNSLKPEDTAVYYCNARDYASGTEGDYWGQGTQVTVSS,low polyreactivity
8,QVQLVESGGVLVQAGGSLRLSCAASGFTFAYYAMGWYRQAPGKVRELVASITRSGGSTYYADSVKGRFTLSRDNAKNTVYLQMNSLKPEDTAVYYCAARYGLVRDVIPYDYWGQGTQVTVSS,high polyreactivity
9,QVQLVESGGGLVQAGGSLRLSCAASGSIFLVYGMGWYRQAPGKERELVAAITSSAGSTYYADSVKGRFTISRDNAKNTVYLQMNSLKPEDTAVYYCAARWAWSTYSYYYWGQGTQVTVSS,high polyreactivity
10,QVQLVESGGGLVQAGGSLRLSCAASGRIFTKYAMGWYRQAPGKERELVASISSGGSTYYADSVKGRFTISRDNAKNTVYLQMNSLKPEDTAVYYCARSTGTSRRMDDWGQGTQVTVSS,high polyreactivity
11,QVQLVESGGGLVQAGGSLRLSCAASGRTFQYYAMGWYRQAPGKERELVAAITSGGSTYYADSVKGRFTISRDNAKNTVYLQMNSLKPEDTAVYYCAASFYYSGHDDYWGQGTQVTVSS,low polyreactivity
12,QVQLVESGGGLVQAGGSLRLSSAATGSIFRGNAIGWYRQAPWKELELVASISYSRGSTYYADSVKGRFTISRDNEKNTVYLQMNSVKPEETAVYYCARDYDAAYYLSEYIRSVEFDYWGQGTQVTVSS,low polyreactivity
13,QVQLVESGGGLVQAGGSLRLSCAASGSIFYFYAMGWYRQAPGKERELVATITRGGSTYYADSVKGRFTISRDNAKNTVYLQMNSLKPEDTAVYYCAADGWYWTYIVEYWGQGTQVTVSS,high polyreactivity
14,QVQLVESGGGLVQAGGSLRLSCADSGSTFYRNAMGWYRQAPGKERELVASINNRGSTYYADSVKGRFTISRDNAKNTVYLQMNRLKPEDTAVYYFAATESWDYDYWGQGTQVTVSS,low polyreactivity
15,QVQLQESGGRLEQAGGSLRPSCAASGSISDGVPMRWNRQAPGEERELVATTVLGATTNYADSVKGRFTISRGNAKHTVYLQMNSLKPEETAVYYCAARLRYDKGFSYWGQGTQVTVSS,low polyreactivity
16,QVQLVESGGGLVQAGGSLRLSCAASGFIFYVYAMGWYRQAPGKERELVATITSGGSTNYADSVKGRFTISRDNAKNTVYLQMNSLKPEDTAVYYCAADGWQSQYEYDYWGQGTQVTVSS,low polyreactivity
